Assay results reported in US20110039771A1 (University of California, published 2011).
Where no end group is shown, it is not given here.

Tests used:
Test in all cases: dot blot: peptide on nitrocellulose, probed with biotinylated-HN and streptavidin-HRP
[1] = biological target: T1, SHLP1 (human)
T1 construct: Dotted on nitrocellulose; also called small humanin-like peptide 1; SHLP1 (M)
T1 peptide: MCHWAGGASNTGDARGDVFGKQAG
Procedure: (§1) FIG. 12 HN binds to SHLP2 and SHLP4. 2, 5 and 10 nmol of IGF-1 (negative control), HN, SHLP1, 2 or 4 were dotted on to nitrocellulose membrane and left to dry. The membrane was blocked, incubated with biotinylated-HN and streptavidin-HRP and exposed by autoradiography.
(§2) To test a dimerization hypothesis, we performed a dot-blot using biotinylated-HN. Two, 5 or 10 nmol IGF-I (negative control), HN (positive control) or SHLP peptide were dotted on to nitrocellulose membrane, and their ability to bind to biotinylated-HN was assessed immunologically. […] Specific interactions that occur may be determined using, e.g., dot blots with biotinylated SHLPs, and/or antibodies against specific SHLPs.

[2] = biological target: T2, humanin (HN) (human)
T2 construct: Unlabelled HN dotted on nitrocellulose as positive control; also called Humanin (M)
T2 peptide: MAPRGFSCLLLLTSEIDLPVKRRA
Procedure: as §1, §2

[3] = biological target: T3, SHLP2 (human)
T3 construct: Dotted on nitrocellulose; also called small humanin-like peptide 2; SHLP2 (M)
T3 peptide: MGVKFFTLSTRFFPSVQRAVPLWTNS
Procedure: as §1, §2

[4] = biological target: T4, SHLP4 (human)
T4 construct: Dotted on nitrocellulose; also called small humanin-like peptide 4; SHLP4 (M)
T4 peptide: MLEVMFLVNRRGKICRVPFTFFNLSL
Procedure: as §1, §2

- binding result [2]: binds
- binding result [3]: binds
- binding result [4]: binds
B1: biotinylated-HN (peptide)
peptide: MAPRGFSCLLLLTSEIDLPVKRRA
modifications: also: biotinylated, site not given here
notes: Probe in solution in the dot blot, detected with streptavidin-HRP; also called biotinylated humanin
- binding result [1]: no binding (tested: 2, 5 or 10 nmol dotted)
